The text below walks through data of patent publication US7919462B2, “Inhibitors of human plasmin derived from the Kunitz domains” (Dyax Corp., priority 1994, dated 2011).

For assay [1], the target named is T1, plasmin (Homo sapiens, UniProt P00747). The following applies: cited from earlier work; for Kd: Table 4, plasmin, read-out: Affinity KD.
For assay [2], the target named is T1, plasmin. Nature of the assay: Inhibition of plasmin hydrolysis of succinyl-Ala-Phe-Lys-(F3Ac)AMC, tight-binding fit (Ki used as KD). It counts as biochemical. An excerpt: A second appropriate method of measuring KD is to measure the inhibitory activity against the enzyme. […] Here, we use the measured Ki as a direct measure of KD.
Inhibition of hydrolysis of succinyl-Ala-Phe-Lys-(F3Ac)AMC (a methyl coumarin) (Sigma Chemical, St. Louis, Mo.) by plasmin at 2.5×10^−8 M with varying amount of inhibitor were fit to the standard form for a tight-binding […] by least-squares.

Assay [3] deals with T1, plasmin. Nature of the assay: Binding of display phage (KuDom on M13 gIIIp) to plasmin beads. The following applies: in words.

Where “and” joins values, the source holds several entries; their conditions need not be identical. Identical values can stand only once. Like-named read-outs stand apart in the source and are kept apart here. Bridges are numbered along the chain shown (N, C = ends). Where no end group is shown, it is not given here.

T1 sequence (P00747 581-810 limits assumed): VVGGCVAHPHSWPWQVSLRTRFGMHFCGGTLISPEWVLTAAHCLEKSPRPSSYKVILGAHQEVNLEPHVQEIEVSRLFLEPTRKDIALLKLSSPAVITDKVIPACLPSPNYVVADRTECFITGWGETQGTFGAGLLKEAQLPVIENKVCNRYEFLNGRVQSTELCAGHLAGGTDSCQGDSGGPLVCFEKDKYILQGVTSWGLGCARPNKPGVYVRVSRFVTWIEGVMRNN
T1 sequence (P00747 97-580 partner limits assumed): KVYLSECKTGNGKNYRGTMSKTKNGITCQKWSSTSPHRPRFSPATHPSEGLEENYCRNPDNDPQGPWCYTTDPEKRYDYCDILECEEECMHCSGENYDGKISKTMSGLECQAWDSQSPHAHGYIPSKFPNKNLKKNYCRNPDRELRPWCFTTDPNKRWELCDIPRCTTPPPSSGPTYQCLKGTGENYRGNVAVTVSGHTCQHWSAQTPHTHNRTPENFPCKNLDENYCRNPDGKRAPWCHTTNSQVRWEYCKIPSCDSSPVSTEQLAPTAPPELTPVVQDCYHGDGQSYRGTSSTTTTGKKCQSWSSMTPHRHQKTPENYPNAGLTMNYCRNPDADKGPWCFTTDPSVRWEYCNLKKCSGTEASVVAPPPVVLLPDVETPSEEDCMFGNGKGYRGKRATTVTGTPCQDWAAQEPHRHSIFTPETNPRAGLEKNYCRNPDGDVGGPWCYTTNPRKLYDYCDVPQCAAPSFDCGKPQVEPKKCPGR

The Ki is a dissociation constant, usually derived from enzyme kinetics or from competition with a known ligand. On to “Human APP-I: human Kunitz domain APP-I, SEQ ID NO. 39 (VREVCSEQAETGPCRAMISRWYFDVTEGKCAPFFYGGCGGNRNNFDTEEYCMAVCGSA; listed as Homo sapiens)”, for which the inhibition constant (Ki) with plasmin [1] (AUER88, SCHN86, DENN94a) is 225 nM. Also, the Kd was 0.075 nM with plasmin [1] (KIDO88) and 225 nM in the assay with plasmin [1] (literature values (APP-I: DENN94a)).

Consider “MHSFCAFKADDGPCKARFERFFFNIFTRQCEQFTYGGCGGNQNRFESLEECKKMCTRD (disulfide 5-55, 14-38, 30-51) [NS4]”, for which the inhibitory constant (Ki) at plasmin [2] (Ki for plasmin, 150 mM salt) was about 2 nM.

On plasmin [2] (Affinity KD), “MHSFCAFKADGGPCKGKFPRFFFNIFTRQCEEFIYGGCEGNQNRFESLEECKKMCTRD (disulfide 5-55, 14-38, 30-51) [SPI22]” registered a Kd of over 2 nM.

For the substance “MHSFCAFKADSGPCRARFDRWFFNIFTRQCTRFPYGGCGGNQNRFESLEECKKMCTRD (disulfide 5-55, 14-38, 30-51) [SPI54]”, the inhibition constant Ki at plasmin [2] (Ki for plasmin, 150 mM salt) is over 4 nM.

Take “MHSFCAFKAETGPCRARFDRWFFNIFTRQCEEFIYGGCEGNQNRFESLEECKKMCTRD (disulfide 5-55, 14-38, 30-51) [SPI11]”: the Kd on plasmin [2] (Affinity KD) was 0.088 nM; at plasmin [2] (affinity for plasmin), under 0.1 nM. Moreover, the inhibitory constant (Ki) at plasmin [2] (Ki for plasmin) was 0.088 nM and ~0.088 nM.

As to “MHSFCAFKAETGPCRGKFDRWFFNIFTRQCESFHYGGCKGNQNRFESLEECKKMCTRD (disulfide 5-55, 14-38, 30-51) [SPI43]”, the inhibitory constant (Ki) at plasmin [2] (Ki for plasmin) was over 4 nM.

With “QS4: LACI-K1 derivative that binds human plasmin, SEQ ID NO. 4 (MHSFCAFKADDGPCKARFERFFFNIFTRQCEQFYYGGCDGNQNRFESLEECKKMCTRD; Synthetically generated peptide)”, the inhibitory constant (Ki) with plasmin [2] (150 mM salt, read-out: Ki for plasmin) was about 2 nM. For the same substance, in the assay with plasmin [2] (Table 4, plasmin, read-out: Affinity KD), the Kd turned out to be 2 nM. The “potency class for plasmin below the rank order of Table 8” value with plasmin [2] (class words wrapped over r53-r54: Highly Superior / very potent / potent, order SPI11<BPTI<SPI23=SPI51<SPI47<QS4<SPI22<SPI54<SPI43) is listed as “potent”.

“SPI08: LACI-K1 derivative selected for plasmin binding, SEQ ID NO. 42 (MHSFCAFKADGGPCRARFERFFFNIFTRQCEEFIYGGCEGNQNRFESLEECKKMCTRD; Synthetically generated peptide)”: the “binding of clonally pure phage compared to BPTI display phage” value with plasmin [3] was “superior to BPTI phage”.

“SPI15: LACI-K1 derivative selected for plasmin binding, SEQ ID NO. 41 (Table 6: 90) (MHSFCAFKAESGPCRARFDRWFFNIFTRQCEEFIYGGCEGNQNRFESLEECKKMCTRD; Synthetically generated peptide)”: the “binding of clonally pure phage compared to BPTI display phage” value with plasmin [3] is “superior to BPTI phage”.
